The results in this text go back to publication PMC3886910 (PLoS Neglected Tropical Diseases, 2014).

Like-named read-outs stand apart in the source and are kept apart here.

Assay [1] addresses SjCP1531, recombinant (Schistosoma japonicum). Nature of the assay: SDS-PAGE and western blot (oligomer bands). A general note: A western blot detects proteins with antibodies after separation by electrophoresis.
Assay [2] deals with native SjCP1531 (Schistosoma japonicum (endogenous in egg and adult worm extracts)). Put plainly: SDS-PAGE and immunoblot (oligomer bands).
Assay [3] concerns the target SjCP1084, recombinant (Schistosoma japonicum). Nature of the assay: SDS-PAGE and western blot (oligomer bands).
Assay [4] addresses native SjCP3842 (Schistosoma japonicum (endogenous in egg and adult worm extracts)). Nature of the assay: SDS-PAGE and immunoblot (oligomer bands).
For assay [5] the target is unchanged. Put plainly: SDS-PAGE and immunoblot (oligomer bands). This is another data set of the same source.
Assay [6] addresses SjCP3842, recombinant (Schistosoma japonicum). Nature of the assay: SDS-PAGE and western blot (oligomer bands).
Assay [7] has the same target. Nature of the assay: SEC. On the technique in general: In gel filtration, larger molecules generally elute earlier.
The target of assay [8] is native SjCP1084 (Schistosoma japonicum (endogenous in egg and adult worm extracts)). Put plainly: SDS-PAGE and immunoblot (oligomer bands).
The target of assay [9] is T1, SjCP3842 (Schistosoma japonicum, UniProt Q6PYV4).
T1 construct: gene CP3842
Put plainly: UV-visible differential spectral titration (Soret […] nm); also hemin-agarose pulldown and heme peroxidase binding assay.

As usually defined, the stoichiometry N is a count of units in the complex or per binding partner. SjCP1531, recombinant (natural protein): the stoichiometry N in assay [1] turned out to be 4. native SjCP1531 (natural protein): in assay [2], the stoichiometry N was found to be 4. In the case of SjCP1084, recombinant (natural protein), the stoichiometry N in assay [3] amounted to 4. With native SjCP3842 (natural protein), the stoichiometry N in assay [4] turned out to be 2; in assay [5], 4. Regarding SjCP3842, recombinant (natural protein), the stoichiometry N in assay [6] and in [7] was 4 in each case. In turn, native SjCP1084 (natural protein) gave a stoichiometry N in [8] of 4. What is called Kd is the constant that tells how readily two partners part at equilibrium. In turn, `C=CC1=C(C)C2=Cc3c(C=C)c(C)c4[n]3[Fe][n]3c(c(C)c(CCC(=O)O)c3=CC3=NC(=C4)C(C)=C3CCC(=O)O)=CC1=N2` [heme] registered a dissociation constant (Kd) in assay [9] of 1.61 µM.
